Assay results published in patent US6420518.
Positions of bridges follow the written chain, without caps; N, C: chain ends. Non-standard residues stand in square brackets, D forms with d. No end group written: not given here. 1Nal = N[C@@H](Cc1cccc2ccccc12)C(=O)O; Nle = CCCC[C@H](N)C(=O)O

T1: IGFBP-1 (UniProt P08833 26-259)
T1 construct: in kinetics immobilised on a CM chip by EDC/NHS; biotinylated in the phage selection
T1 sequence (looked up): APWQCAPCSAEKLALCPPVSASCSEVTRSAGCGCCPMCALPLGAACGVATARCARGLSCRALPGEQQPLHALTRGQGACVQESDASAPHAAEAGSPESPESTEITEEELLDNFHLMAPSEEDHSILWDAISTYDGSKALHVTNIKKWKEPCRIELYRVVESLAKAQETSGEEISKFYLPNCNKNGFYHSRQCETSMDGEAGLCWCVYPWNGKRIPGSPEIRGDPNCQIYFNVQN

B1: bp1-16 (peptide)
peptide: CRAGPLQWLCEKYF
modifications: disulfide 1-10
notes: Synthetic peptide
B2: bp1-01 (peptide)
peptide: CRAGPLQWLCEKYFG
modifications: disulfide 1-10
B3: bp1-37 (peptide)
peptide: CRAGPLQW[Nle]CEKYF
modifications: disulfide 1-10
notes: also called L9(Nle) variant of bp1-16
B4: bp1-24 (peptide)
peptide: CRAGPLQHLCEKYF
modifications: disulfide 1-10
notes: also called W8H variant of bp1-16
B5: bp1-26 (peptide)
peptide: CRAGPLQWRCEKYF
modifications: disulfide 1-10
notes: also called L9R variant of bp1-16
B6: bp1-29 (peptide)
peptide: CRAAPLQWLCEKYF
modifications: disulfide 1-10
notes: also called G4A variant of bp1-16
B7: bp1-30 (peptide)
peptide: CRAGALQWLCEKYF
modifications: disulfide 1-10
notes: also called P5A variant of bp1-16
B8: bp1-31 (peptide)
peptide: CRAGRLQWLCEKYF
modifications: disulfide 1-10
notes: also called P5R variant of bp1-16
B9: bp1-32 (peptide)
peptide: CRAGPRQWLCEKYF
modifications: disulfide 1-10
notes: also called L6R variant of bp1-16
B10: bp1-34 (peptide)
peptide: CRAGNLQWLCEKYF
modifications: disulfide 1-10
notes: also called P5N variant of bp1-16
B11: bp1-36 (peptide)
peptide: CRAGP[Nle]QWLCEKYF
modifications: disulfide 1-10
notes: also called L6(Nle) variant of bp1-16
B12: bp1-625 (peptide)
peptide: GQQSCAAGPLQWLCEHYFSTYGR
modifications: disulfide 5-14
notes: bp1-40 with R2A, K12H and an added C-terminal GlyArg
B13: (i+7)A (peptide)
peptide: Ac-CRAGPLQELCEKYAE
modifications: disulfide 1-10 (inferred); linker 8-15 via 1,5‑diaminopentane
notes: W8 and G15 replaced by the cross-linking Glu residues, F14 replaced by Ala; also called locked-helix variant of bp1-01
B14: (i+7)B (peptide)
peptide: Ac-LEWLAEKYEG
modifications: linker 2-9 via 1,5‑diaminopentane
notes: also called locked-helix variant of bp1-01
B15: (i+7)C (peptide)
peptide: Ac-PLEWLAEKYEG
modifications: linker 3-10 via 1,5‑diaminopentane
notes: as for B14
B16: (i+7)D (peptide)
peptide: Ac-RAGPLEWLAEKYEG
modifications: linker 6-13 via 1,5‑diaminopentane
notes: as for B14
B17: (i+8)B (peptide)
peptide: Ac-RPLEWLAEKYFE
modifications: linker 4-12 via 1,5‑diaminopentane
notes: as for B14
B18: (i+8)C (peptide)
peptide: Ac-RAGPLEWLAEKYFE
modifications: linker 6-14 via 1,5‑diaminopentane
notes: as for B14
B19: bp1-22 (peptide)
peptide: CRAGPLQRLCEKYF
modifications: disulfide 1-10
notes: also called W8R variant of bp1-16
B20: bp1-23 (peptide)
peptide: CRAGPLQ[1Nal]LCEKYF
modifications: disulfide 1-10
notes: also called W8(Nal(1)) variant of bp1-16

Each binder was assayed against T1, IGFBP-1 (assay: ELISA or BIAcore inhibition of IGFBP-1 binding to IGF-I; reference peptide).

With B1 the “Fold potency reduction IC50(mut)/IC50(bp1-16)” value was 1 fold.

The binders below were run against T1, IGFBP-1 (assay: BIAcore inhibition of the interaction of IGFBP-1 with IGF-1; reference peptide).

In the case of B2, the “Fold potency reduction IC50(bp1-01)/IC50(mut)” value is reported as 1 fold.

These binders were tested against T1, IGFBP-1 (assay: ELISA inhibition of IGFBP-1 binding to IGF-I).

Compared with B3, B4 is higher in “Fold potency reduction IC50(mut)/IC50(bp1-16)” value: 1.7 fold for the first, 7.5 fold for the second.

Compared with B5, B6 is lower in “Fold potency reduction IC50(mut)/IC50(bp1-16)” value: over 570 fold for the first, 50 fold for the second.

First: B7
Second: B8
The “Fold potency reduction IC50(mut)/IC50(bp1-16)” value of the first is lower: 1.5 fold for the first, 2 fold for the second.

Going from B9 to B10, the “Fold potency reduction IC50(mut)/IC50(bp1-16)” value falls from over 1000 fold to 3.1 fold.

With B11 the “Fold potency reduction IC50(mut)/IC50(bp1-16)” value was 6.9 fold.

These binders were tested against T1, IGFBP-1 (assay: BIAcore inhibition assay, 9-10 nM IGFBP-1, immobilized IGF-1).

In the case of B12, the “fold improved potency over bp1-01” value is reported as about 20 fold.

Each binder was assayed against T1, IGFBP-1 (assay: BIAcore inhibition of the interaction of IGFBP-1 with IGF-1).
Method: Peptides were assayed in a BIAcore1 assay as described in WO 98/45427, supra.

First: B13
Second: B14
The “Fold potency reduction vs bp1-01” value of the first is lower: 40 fold for the first, over 360 fold for the second.

Compared with B15, B16 is lower in “Fold potency reduction vs bp1-01” value: 20 fold for the first, 7.7 fold for the second.

Compared with B17, B18 is lower in “Fold potency reduction vs bp1-01” value: 7.7 fold for the first, 5.9 fold for the second.

Each binder was assayed against T1, IGFBP-1 (assay: BIAcore inhibition of IGFBP-1 binding to IGF-I).

First: B19
Second: B20
The “Fold potency reduction IC50(mut)/IC50(bp1-16)” value of the first is lower: 3.3 fold for the first, 4.8 fold for the second.
